The values that follow come from article PMC10907274.

This assay deals with Dark (wild type), auto-inhibited monomer (D. melanogaster) (UniProt Q7KLI1). Nature of the assay: cryo-EM structure.

“And” between values parts separate entries of the source, which are not always exact repeats. Equal entries are not always repeated.

The stoichiometry N is the number of molecules, sites or subunits per partner or assembly. For “Dark (wild type), auto-inhibited monomer (from UniProt Q7KLI1 1-1440) (natural protein)”, the stoichiometry N is 6 and 8.
